Here are results for 167 variants from the RNAGym collection of RNA variant scans (doi:10.7554/elife.80360).

First the molecules themselves.
B1: HDV Ribozyme (parent)
chain: GGCCGGCAUGGUCCCAGCCUCCUCGCUGGCGCCGGCUGGGCAACAUUCCGAGGGGACCGUCCCCUCGGUAAUGGCGAAUGGGACCCA

The variants in this data set derive from B1. Kind of data set: self-cleavage, relative activity (ratio to wild type); higher = more cleavage; co-transcriptional.
On to C18A C64U, for which the self-cleavage is 0.256.
As for C18A C64G, the self-cleavage is 0.0678.
For C18U C62G, the self-cleavage came to 0.543.
For C18U C62A the value was 0.599.
For C18A C19U, the self-cleavage stood at 0.0339.
For C18A G29A, the self-cleavage stood at 0.0604.
Regarding C18U A77C, the self-cleavage amounted to 0.342.
As to C18U A77U, the self-cleavage is 0.0678.
For C18U A77G the value was 0.623.
C18G C44A: the self-cleavage was found to be 0.
On to C18G C44U, for which the self-cleavage is 0.0426.
With C18G C19A, the self-cleavage amounted to 0.119.
In the case of C18G G25C, the self-cleavage stood at 0.222.
Regarding C18G G25A, the self-cleavage was found to be 0.0504.
C18U G74A: the self-cleavage stood at 0.0639.
Consider C18A U72C, for which the self-cleavage came out at 0.0437.
On to C18A U72G, for which the self-cleavage is 0.19.
The value for C18U A71G was 0.504.
Turning to C18G G68C, the self-cleavage was 0.119.
As to C18G G68U, the self-cleavage amounted to 0.0978.
For C18G G68A the value was 0.0504.
As for C18A A56C, the self-cleavage turned out to be 0.0573.
On to C18A A56U, for which the self-cleavage came out at 0.222.
Turning to C18G C84A, the self-cleavage was determined as 0.095.
For C18A C22G, the self-cleavage amounted to 0.0811.
For C18A C22U, the self-cleavage was 0.0378.
The value for C18A A87G was 0.0811; that for C18A A87C was 0.134; that for C18A C75U was 0.0665.
In the case of G17U U65G, the self-cleavage is 0.541.
For G17U U65A, the self-cleavage is 0.415.
G17U U65C: the self-cleavage is 0.332.
Regarding G17U G31A, the self-cleavage came out at 0.107.
G17U G25U: the self-cleavage amounted to 0.185.
On to C18A A51G, for which the self-cleavage amounted to 0.0554.
C18A A51U: the self-cleavage was 0.0378.
On to C18A G55A, for which the self-cleavage is 0.0314.
For the variant C18U C41G, the self-cleavage turned out to be 0.0314.
In the case of C18G A56U, the self-cleavage amounted to 0.138.
For C18G A56G the value was 0.
For the variant C18A U46C, the self-cleavage stood at 0.095.
As for C18A U46G, the self-cleavage is 0.128.
Take G17U U46G: the self-cleavage was 0.0554.
In the case of G17U U46A, the self-cleavage is 0.111.
As for G17U G80C, the self-cleavage was 0.102.
The value for G17U G80U was 0.156; that for G17U G80A was 0.272; that for C18G G73A was 0.
The value for C18A C58G was 0; that for C18A C58U was 0.196.
For G17U G55A, the self-cleavage is 0.554.
For C18A U79G, the self-cleavage stood at 0.0639.
C18A U79A: the self-cleavage worked out at 0.138.
On to C18A U79C, for which the self-cleavage was determined as 0.117.
C18G G67U: the self-cleavage amounted to 0.101.
For C18G G67C, the self-cleavage was found to be 0.203.
Regarding C18G C36G, the self-cleavage was 0.
For C18G C36U, the self-cleavage came to 0.0852.
With C18G C36A, the self-cleavage worked out at 0.095.
With C18U C36G, the self-cleavage came to 0.142.
The value for C18G A45C was 0.
For C18G A45U, the self-cleavage was determined as 0.217.
The value for C18G C48G was 0.175; that for C18G C48A was 0.123; that for G17U G34C was 0.0692.
As to G17U G34U, the self-cleavage came to 0.0554.
The value for C18G C86G was 0.0831.
Turning to G17U G39C, the self-cleavage was determined as 0.0755.
For G17U G39U, the self-cleavage was 0.126.
For the variant C18U G28A, the self-cleavage is 0.0346.
Turning to C18U G28U, the self-cleavage came to 0.0573.
Take C18U A42U: the self-cleavage amounted to 0.0627.
On to C18U A42G, for which the self-cleavage was 0.151.
For the variant C18A C57A, the self-cleavage is 0.219.
In the case of C18A C57G, the self-cleavage is 0.208.
Consider C18G A87C, for which the self-cleavage is 0.104.
As for C18U G76A, the self-cleavage amounted to 0.728.
For C18A G40U, the self-cleavage was 0.0631.
For C18U A45C, the self-cleavage came to 0.0755.
Consider C18U A45G, for which the self-cleavage came out at 0.306.
The value for C18A G50C was 0.219; that for C18A G50A was 0.23.
For C18A G50U the value was 0.197; for C18U G31C, 0.0326.
On to C18U G31U, for which the self-cleavage worked out at 0.119.
For G17U U60A the value was 0.494; for G17U U60G, 0.522; for C18G G29U, 0.601.
In the case of C18G G29A, the self-cleavage came to 0.217.
As for C18U, the self-cleavage came to 0.732.
As to C18A, the self-cleavage came out at 0.145.
For C18G, the self-cleavage came out at 0.131.
In the case of G17U G28U, the self-cleavage worked out at 0.0923.
As to C18G C24A, the self-cleavage stood at 0.0755.
In the case of C18G C24G, the self-cleavage is 0.0504.
Regarding C18G C24U, the self-cleavage was 0.107.
C18G A42C: the self-cleavage was 0.
For the variant C18G A42G, the self-cleavage came out at 0.115.
The value for C18G A42U was 0.138.
For the variant C18A A78G, the self-cleavage turned out to be 0.131.
For C18A A78C the value was 0.0978.
Consider C18U G50A, for which the self-cleavage turned out to be 0.852.
As for C18G A43G, the self-cleavage is 0.145.
The value for C18G A43C was 0.332.
Take C18G U20G: the self-cleavage stood at 0.185.
On to C18G U20C, for which the self-cleavage was 0.
Regarding C18G G39U, the self-cleavage amounted to 0.0554.
In the case of C18G G53U, the self-cleavage was 0.332.
For C18A G54U, the self-cleavage was found to be 0.135.
Turning to C18A G54A, the self-cleavage amounted to 0.0779.
C18A C49U: the self-cleavage came out at 0.133.
The value for C18U C33U was 0.463.
As for G17U G52A, the self-cleavage stood at 0.509.
Turning to G17U G52C, the self-cleavage worked out at 0.591.
In the case of C18U C44A, the self-cleavage stood at 0.0978.
In the case of C18U C44G, the self-cleavage amounted to 0.142.
The value for C18G C63U was 0.0386; that for C18G G31C was 0.0449; that for C18U G25U was 0.0297.
For C18U G25A the value was 0.104; for C18U G25C, 0.201; for C18A C36U, 0.0386.
As to C18U C24A, the self-cleavage worked out at 0.123.
Take C18U C24G: the self-cleavage was 0.0665.
For C18A G39C the value was 0.0755; for C18A G39A, 0.0739.
Turning to C18A G39U, the self-cleavage was 0.0369.
Turning to C18G U46G, the self-cleavage worked out at 0.0692.
On to C18G U46A, for which the self-cleavage amounted to 0.145.
For C18U C61U, the self-cleavage turned out to be 0.481.
For the variant G17U U23A, the self-cleavage came to 0.397.
With G17U U23C, the self-cleavage is 0.219.
As for C18G G55U, the self-cleavage was found to be 0.0811.
Regarding C18A C33A, the self-cleavage is 0.121.
Consider C18G G76U, for which the self-cleavage stood at 0.227.
For C18G G76A the value was 0.111; for C18U C85A, 0.574; for G17U G59U, 0.43.
In the case of G17U G59C, the self-cleavage was found to be 0.432.
G17U G76U: the self-cleavage is 0.749.
Regarding G17U G74U, the self-cleavage was found to be 0.217.
As to G17U G74C, the self-cleavage was found to be 0.0415.
With G17U U20G, the self-cleavage was 0.
For C18G C58A the value was 0.0573; for C18A U27A, 0.131; for C18U C30G, 0.0583.
As for C18U C30A, the self-cleavage was 0.156.
Regarding G17U G82A, the self-cleavage is 0.543.
On to C18G U37A, for which the self-cleavage was determined as 0.111.
Turning to C18U C48A, the self-cleavage stood at 0.644.
Consider C18A A77G, for which the self-cleavage was 0.0354.
C18G C66A: the self-cleavage was 0.0437.
Regarding C18G G82A, the self-cleavage came to 0.0462.
Turning to C18A C48A, the self-cleavage was 0.0369.
Consider C18U G73A, for which the self-cleavage was found to be 0.161.
With G17U G35U, the self-cleavage was found to be 0.198.
Consider G17U G35A, for which the self-cleavage came out at 0.133.
G17U G35C: the self-cleavage turned out to be 0.125.
For C18U C22A, the self-cleavage was found to be 0.27.
For C18U C22G the value was 0.0462; for C18A G80C, 0; for C18A G80A, 0.0963.
On to C18A G80U, for which the self-cleavage is 0.051.
For C18A C66U, the self-cleavage turned out to be 0.0779.
In the case of C18A C66A, the self-cleavage stood at 0.208.
The value for C18A G59U was 0.113; that for C18A G59A was 0.228.
